The record followed here is patent US20050186197A1.

Test [1] deals with class C β-lactamase P99 from Enterobacter cloacae (Enterobacter cloacae) (UniProt P05364). Description: β-lactamase inhibition assay (cephalosporin C).
The next test deals with TEM-1 β-lactamase (UniProt P62593). Nature of the test: β-lactamase inhibition assay (cephalosporin C).
Test [2] addresses T1, TEM-1 β-lactamase, P62593.
T1 chain: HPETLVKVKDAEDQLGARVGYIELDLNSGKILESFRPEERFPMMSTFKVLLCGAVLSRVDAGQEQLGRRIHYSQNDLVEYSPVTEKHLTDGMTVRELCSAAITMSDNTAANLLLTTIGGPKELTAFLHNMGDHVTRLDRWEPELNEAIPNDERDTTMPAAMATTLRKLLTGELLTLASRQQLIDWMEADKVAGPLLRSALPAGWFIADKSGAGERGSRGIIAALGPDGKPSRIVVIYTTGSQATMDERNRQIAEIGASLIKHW
Description: β-lactamase inhibition assay (cephalosporin C), Ki from IC50 by Cheng-Prusoff.

Test [3] deals with T2, class C β-lactamase P99 from Enterobacter cloacae (Enterobacter cloacae), P05364. The description is as above.
T2 sequence (P05364 21-381 limits assumed): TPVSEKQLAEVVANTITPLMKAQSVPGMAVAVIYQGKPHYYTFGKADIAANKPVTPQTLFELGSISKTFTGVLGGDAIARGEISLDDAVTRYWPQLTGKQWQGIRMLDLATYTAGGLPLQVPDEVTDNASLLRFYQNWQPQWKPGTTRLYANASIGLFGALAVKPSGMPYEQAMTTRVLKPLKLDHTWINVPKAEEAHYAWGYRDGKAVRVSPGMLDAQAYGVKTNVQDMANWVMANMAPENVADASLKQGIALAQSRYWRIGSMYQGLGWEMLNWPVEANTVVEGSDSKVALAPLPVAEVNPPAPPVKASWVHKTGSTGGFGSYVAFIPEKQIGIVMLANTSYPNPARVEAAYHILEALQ
For test [4], the target named is T1, TEM-1 β-lactamase, P62593. Description: ratio of Ki values, β-lactamase inhibition assay.
Test [5] deals with T2, class C β-lactamase P99 from …. Nature of the test: ratio of Ki values, β-lactamase inhibition assay.
Test [6] concerns the target T1, TEM-1 β-lactamase, P62593. Description: β-lactamase inhibition assay, disulfide-bonded peptide.

Positions of bridges follow the written chain, without caps; N, C: chain ends. No end group written: not given here.

In the case of RR-NH2 (peptide), the inhibition constant Ki (in test [1]; with TEM-1 β-lactamase) was > 2000 µM throughout.

B1: AAGHYY-NH2 (peptide)
peptide: AAGHYY-NH2
Turning to B1, the inhibition constant (Ki) – broadly, a dissociation constant, usually derived from enzyme kinetics or from competition with a known ligand – in test [2] turned out to be 438 µM; in test [3] it was 468 µM. Besides, the fold increase in Ki relative to RRGHYY-NH2 in test [4] and in test [5] was 3 fold each time.

B2: …-NH2 (peptide)
peptide: HSAYSDTRRGDYG-NH2
With B2, the Ki in test [2] was determined as 298 µM; in test [3] it was 254 µM. Also, the fold increase in binding affinity relative to the cysteine peptide …-NH2 in test [4] is 10 fold.

B3: …-NH2 (disulfide-bonded soluble peptide) (peptide)
peptide: HSACSDTRRGDCG-NH2
modifications: disulfide 4-12 (inferred)
B3 gave a Ki in test [6] of 3500 µM.

B4: RRGHYY-NH2 (peptide)
peptide: RRGHYY-NH2
As to B4, in test [2], the inhibition constant Ki was found to be 136 µM. This molecule also showed a Ki in test [3] of 140 µM. Besides, in test [4], the fold improvement in affinity relative to disulfide bonded …-NH2 was found to be 25 fold and the fold improvement in affinity relative to …-NH2 came to 2 fold.
